The assay concerns the target CLuc-TaVIH2 (Triticum aestivum (wheat)). Description: split reporter.

In turn, NLuc-TaFLA7 (natural protein) had a fold increase of luminescence (RLU) over controls of 7 to 8 fold.
